Measured values as given in patent US20210301005A1 (Genentech, published 2021).
Like-named read-outs stand apart in the source and are kept apart here.

Columns and labels:
[1] = molecular target: T1, human TGFβ3, mature dimeric form (human, UniProt P10600 301-412); assay: SPR
T1 construct: Peprotech, expressed in E. coli; also called TGFb3
T1 sequence: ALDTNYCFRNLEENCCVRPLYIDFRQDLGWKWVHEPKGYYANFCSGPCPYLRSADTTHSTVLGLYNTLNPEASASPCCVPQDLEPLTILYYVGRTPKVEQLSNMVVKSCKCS

[2] = molecular target: T2, human TGFβ2, mature receptor-binding domain (human, UniProt P09858 303-414 (pig entry), The mature TGFβ2 is a disulfide-linked homodimer of this 112-residue chain. The 4A11 epitope spans both monomers (p-1207).); assay: SPR
T2 construct: Peprotech; also called TGFb2
T2 sequence: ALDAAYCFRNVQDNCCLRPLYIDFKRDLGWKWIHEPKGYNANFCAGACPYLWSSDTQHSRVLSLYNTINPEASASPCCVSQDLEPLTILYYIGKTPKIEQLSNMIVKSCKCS

[3] = molecular target: T1, human TGFβ3, mature dimeric form; assay: cell-based or functional assay
[4] = molecular target: T1, human TGFβ3, mature dimeric form; assay: cell-based or functional assay; remark: listed apart in the source
[5] = molecular target: T3, human TGFβ1, mature receptor-binding domain (human, UniProt P01137 279-390); assay: cell-based or functional assay
T3 sequence (P01137 279-390 limits assumed): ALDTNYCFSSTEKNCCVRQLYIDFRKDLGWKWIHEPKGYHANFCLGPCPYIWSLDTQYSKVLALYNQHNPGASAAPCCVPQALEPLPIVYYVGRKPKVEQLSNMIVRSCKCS

[6] = molecular target: T2, human TGFβ2, mature receptor-binding …; assay: cell-based or functional assay
[7] = molecular target: T1, human TGFβ3, mature dimeric form; assay: BIAcore T200
Procedure: (§1) For binding affinity determinations of all humanized 2A10 antibodies, Surface Plasmon Resonance (SPR) measurement with a BIAcore™-T200 instrument was used. Briefly, series S CM5 biosensor chip with protein A was first applied to capture each humanized 2A10 variant to achieve approximately 100 response units (RU) on each flow cell, following by injection of 3-fold serial dilutions of human TGFβ1, TGFβ2 or TGFβ3 (0.02 nM to 5 nM) in HBS-EP buffer (0.01M HEPES pH 7.4, 0.15M NaCl, 3 mM EDTA and 0.05% v/v surfactant P20) at 25° C. with a flow rate of 50 μl/min for kinetics measurement. Association rates (ko.) and dissociation rates (koff) were calculated using a simple one-to-one Langmuir binding model (BIAcore T200 evaluation software version 2.0) to determine the equilibrium dissociation constant (KD), which was calculated as the ratio koff/kₒₙ.
(§2) Binding affinity determinations of all humanized 4A11 antibodies were performed using SPR measurement with a BIAcore™-T200 instrument, as described above in Example 6 ([…]).

[8] = molecular target: T3, human TGFβ1, mature receptor-binding …; assay: BIAcore T200
Procedure: as §1, §2

[9] = molecular target: T2, human TGFβ2, mature receptor-binding …; assay: BIAcore T200
Procedure: as §1, §2

[10] = molecular target: T1, human TGFβ3, mature dimeric form; assay: cell-based or functional assay; remark: listed apart in the source
[11] = molecular target: T3, human TGFβ1, mature receptor-binding …; assay: cell-based or functional assay; remark: listed apart in the source
[12] = molecular target: T2, human TGFβ2, mature receptor-binding …; assay: cell-based or functional assay; remark: listed apart in the source
[13] = molecular target: T1, human TGFβ3, mature dimeric form; assay: cell-based or functional assay; remark: listed apart in the source
[14] = molecular target: T2, human TGFβ2, mature receptor-binding …; assay: cell-based or functional assay; remark: listed apart in the source
[15] = molecular target: T4, mouse TGFβ2, mature peptide (mouse, UniProt P27090 303-414); assay: cell-based or functional assay
T4 sequence (looked up): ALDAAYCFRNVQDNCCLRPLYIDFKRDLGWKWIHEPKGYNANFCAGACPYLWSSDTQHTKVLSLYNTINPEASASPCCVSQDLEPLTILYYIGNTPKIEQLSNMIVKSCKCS

[16] = molecular target: T2, human TGFβ2, mature receptor-binding …; assay: cell-based or functional assay; remark: listed apart in the source
[17] = molecular target: T4, mouse TGFβ2, mature peptide; assay: Biacore SPR
[18] = molecular target: T2, human TGFβ2, mature receptor-binding …; assay: Biacore SPR
[19] = molecular target: T1, human TGFβ3, mature dimeric form; assay: SPR; remark: listed apart in the source
[20] = molecular target: T2, human TGFβ2, mature receptor-binding …; assay: SPR; remark: listed apart in the source
[21] = molecular target: T1, human TGFβ3, mature dimeric form; assay: BIAcore T200; remark: listed apart in the source
Summary of the method: (§3)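 Humanized antibodies captured on protein A CM5 chip (~100 RU), then 3-fold serial dilutions of TGFβ (0.02–5 nM) injected in HBS-EP pH 7.4 at 25° C., 50 μl/min. kon and koff from 1:1 Langmuir fit; KD = koff/kon.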

[22] = molecular target: T2, human TGFβ2, mature receptor-binding …; assay: BIAcore T200; remark: listed apart in the source
Summary of the method: as §3

- Kd [1]: 0.005 nM
- Kd [2]: 0.008 nM
- HEKBlue TGFβ blocking IC50 [3]: 0.06 nM
- HEKBlue TGFβ blocking IC50 [4]: 0.06 nM
- HEKBlue TGFβ blocking IC50 [5]: > 200 nM
- HEKBlue TGFβ blocking IC50 [6]: 0.09 nM
- Kd [7]: ≤ 0.0012 nM
- Kd [8]: > 5 nM
- Kd [9]: 0.0016 nM
- Blocking IC50 [10]: 0.03 nM
- Blocking IC50 [11]: > 500 nM
- Blocking IC50 [12]: 0.25 nM
- cell-based IC50 [13]: < 0.25 nM
- cell-based IC50 [14]: < 0.25 nM
- IC50 (read off the curve) [15]: ~0.07 nM
- IC50 (read off the curve) [16]: ~0.06 nM
- Kd [17]: < 0.002 nM
- Kd [18]: 0.008 nM
- Kd [19]: < 0.01 nM
- Kd [20]: < 0.01 nM
- Kd [21]: ≤ 0.0012 nM
- Kd [22]: 0.0016 nM
B1: 4A11 (antibody, V domains shown)
VH: QSLEESGGRLVTPGTPLTLTCTVSGFSLSSYTVNWVRQAPGKGLEWIGYISYGGSAYYASWANGRFTISKTSATVDLKITSPTTEDTATYFCARHMQVGGAPTGSMAAFDPWGPGTLVTVSS
VL: AAVLTQTPSPVSAAVGGTVSISCQSSQSVYNNNYLSWFQQKPGQPPKLLIYGASTLTSGVPSRFKGSGSGTQFTLTISDVQCDDAATYYCAGGYSGSSDKYAFGGGTEVVVKG
notes: anti-TGFβ2/3, recombinant rabbit monoclonal; some paragraphs print the H/L pair as 32/33; also called Rb1.4A11; Rbt 4A11
